Measured values as given in patent publication US10894811B2, “Peptide inhibitors of calcium channels” (The University of North Carolina at Chapel Hill, priority 2016, dated 2021).
Entries after “also recorded” stand apart in the source; their conditions may differ.

Legend:
Orai1 [1] = biological target: T1, Orai1 (Homo sapiens, UniProt Q96D31); experiment: Fluorescent (confocal) microscopy of Orai1 localization; assay type: cell-based; design: expressed in transfected cells; details: ASMC treated with SPLUNC1
Experimental: Fluorescent microscopy: Human ASMs were grown on 25-mm glass coverslips for fluorescent imaging. Cells were transfected with the indicated fluorescent-labeled proteins. At 24 h post-transfection, cells were incubated with or without SPLUNC1 for 4 h, followed by methanol fixation and DAPI (1 μg/ml) staining for nucleus. For live cell imaging, cells were grown on 35-mm glass-bottom dishes (In Vivo Scientific) and transfected with the YFP-Orai1. At 24 h post-transfection, cells were incubated with SPLUNC1 and images were taken at indicated time point. All images were taken with a Leica TCS SP8 63× oil lens using the Leica Application Suite X software (Leica).

[2] = system: myosin light chain (MLC) phosphorylation; experiment: Immunoblot of phosphorylated myosin light chain in ASMCs; assay type: cell-based, human; details: basal and Ach-induced; pre-treatment with SPLUNC1
Experimental: Antibodies, immunoprecipitation, and immunoblot analysis: Rabbit anti-Orai1, anti-HA epitope (Santa Cruz), anti-GFP, anti-phospho-myosin light chain, anti-total myosin light chain, anti-GAPDH (glyceraldehyde-3-phosphate dehydrogenase) (Cell Signaling Technology); mouse anti-V5 epitope (Life Technologies), were purchased from commercial sources. To detect protein expression in total cell lysates, cells were lysed in Pierce® IP lysis buffer with 25 mM Tris-HCl pH 7.4, 150 mM NaCl, 1% NP-40, 1 mM EDTA, 5% glycerol, followed by SDS-polyacrylamide electrophoresis and immunoblot.

Orai1 [3] = biological target: T1, Orai1; experiment: Surface biotinylation / immunoblot of plasma membrane Orai1; assay type: cell-based; details: ASMC, after 4 h of SPLUNC1 exposure
Experimental: Surface biotinylation: hASMCs were treated with or without SPLUNC1 for 4 h. Cells were then washed with prechilled PBS^++ (phosphate buffered saline supplemented with 1 mM CaCl2 and 1 mM MgCl2), and then labeled with 0.5 mg/ml sulfo-NHS-biotin (Thermo) in borate buffer (85 mM NaCl, 4 mM KCl, 15 mM Na2B4O7, pH 9.0) while tumbling gently for 30 min on ice. hASMCs were incubated in PBS^++ buffer supplemented with 10% FBS for 20 min at 4° C. to quench free biotin. Cells were washed again three times with chilled PBS^++ and proteins were extracted as previously using lysis buffer (0.4% sodium deoxycholate, 1% NP-40, 50 mM EGTA, 10 mM Tris-Cl, pH 7.4) supplemented with 1×PIC. Total inputs were taken from whole cell samples representing 4% of total protein. Solubilized proteins were incubated with 100 μl of neutravidin beads (Pierce) overnight while rotating at 4° C. Samples were washed three times with lysis buffer. Bead-bound proteins were then eluted and SDS-polyacrylamide gels, and subjected to immunoblot analysis.

Human ASMCs = experiment: Cell contraction assay (collagen gel); assay type: cell-based; details: pre-incubation with recombinant SPLUNC1; with or without Ach; 60 min
Experimental: Cell contraction assay: The cell contraction assay was performed using a standard commercially available kit (Cell Biolabs). Human ASMCs were harvested and re-suspended in DMEM, two parts of cells were mixed with eight parts of collagen gel lattice mixture and plated for 1 h at 37° C. After the gel solidified, 1 ml of medium was added and incubated for 48 h. Next the gels were released from the sides of wells, and the images were taken using a ChemiDoc™ MP imager (BioRad) at 0 and 1 h after adding indicated reagents. The changes of collagen gel surface areas were analyzed using ImageJ software and normalized to areas of gels at 0 time point.

hASMCs = experiment: Calcium imaging using fura-2 (thapsigargin-induced Ca2+ signaling); assay type: cell-based, human
Experimental: Calcium imaging: Calcium imaging using fura-2 was adapted from a previous published protocol with minor modifications (Sheridan et al., J. Biol. Chem. 288:33509 (2013)). Briefly, hASMCs were loaded with 2 μM fura-2 AM (Invitrogen) and serosal media from HBEC cultures or recombinant SPLUNC1 at 37° C. for 1 h. Cultures were washed with a standard Ringer's solution (101 mM NaCl, 12 mM NaHCO3, 1.2 mM MgCl2, 1.2 mM CaCl2, […], 24 mM HEPES, 10 mM glucose, pH 7.4) or with Ca^2+-free Ringer's solution as indicated. Cultures were then placed in the Ringer's solution, and images were collected with a 40×1.4 NA oil objective on a Nikon Ti-S inverted microscope. Fura-2 fluorescence was acquired alternately at 340 and 380 nm (emission >450 nm) using LUDL filter wheels, obtained with an Orca FLASH 4.0 CMOS camera (Hammamatsu), and controlled with HCImageLive software. Cell bodies were identified as individual regions of interest (ROIs). Background subtraction was performed using a region without the cell. Signals were converted to relative changes (F/F0) where F0 was the ratio of the average fluorescent intensity (340/380) of ROIs at 0 time point. A total of 20 cells/coverslip were recorded. ΔF/F0 represents average peak fluorescent intensity changes of three independent experiments.

ASMC plasma membranes = experiment: SPLUNC1 binding to ASMCs after Orai1 shRNA (surface biotinylation, fluorescent SPLUNC1 binding assay); design: species or system human; details: Orai1 shRNA knockdown vs scrambled control, 72 h post transfection
Experimental: Short hairpin RNA (shRNA) plasmid against Orai1 and scrambled control shRNA plasmid were purchased from Sigma Aldrich and published previously (Sheridan et al., J. Biol. Chem. 288:33509 (2013)). Transfections of all plasmid DNA and shRNA were performed using Lipofectamine 2000 reagent (Life Technologies) according to the manufacturer's instructions.
Fluorescent SPLUNC1 binding assay: Human ASMCs were transfected with scrambled control shRNA and Orai1 shRNA respectively. 72 h post transfection, cells were treated with or without SPLUNC1-DyLight 633 for 1 h, then washed for 5 times with ice-cold Ringer's solution. ASMC-bounded SPLUNC1-Dylight 633 was detected by fluorescent plate reader (Tecan). Cells were also stained with calcein AM (Life Technologies) as cell number control. Relative fluorescent intensity was calculated by normalizing fluorescent intensity at 658 nm to 526 nm.
Surface biotinylation: hASMCs were treated with or without SPLUNC1 for 4 h. Cells were then washed with prechilled PBS^++ (phosphate buffered saline supplemented with 1 mM CaCl2 and 1 mM MgCl2), and then labeled with 0.5 mg/ml sulfo-NHS-biotin (Thermo) in borate buffer (85 mM NaCl, 4 mM KCl, 15 mM Na2B4O7, pH 9.0) while tumbling gently for 30 min on ice. hASMCs were incubated in PBS^++ buffer supplemented with 10% FBS for 20 min at 4° C. to quench free biotin. […]

T1 sequence (Q96D31 whole entry): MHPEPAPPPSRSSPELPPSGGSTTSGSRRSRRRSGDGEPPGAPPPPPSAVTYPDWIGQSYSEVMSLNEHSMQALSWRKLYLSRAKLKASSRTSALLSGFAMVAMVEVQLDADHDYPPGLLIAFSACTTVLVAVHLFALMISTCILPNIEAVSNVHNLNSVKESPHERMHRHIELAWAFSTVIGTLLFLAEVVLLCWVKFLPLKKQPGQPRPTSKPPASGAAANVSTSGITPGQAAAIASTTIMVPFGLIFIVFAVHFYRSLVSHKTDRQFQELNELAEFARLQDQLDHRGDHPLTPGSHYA

B1: SPLUNC1: Short palate, lung and nasal epithelium clone 1, recombinant full length protein (protein, listed as Homo sapiens)
chain: MFQTGGLIVFYGLLAQTMAQFGGLPVPLDQTLPLNVNPALPLSPTGLAGSLTNALSNGLLSGGLLGILENLPLLDILKPGGGTSGGLLGGLLGKVTSVIPGLNNIIDIKVTDPQLLELGLVQSPDGHRLYVTIPLGIKLQVNTPLVGASLLRLAVKLDITAEILAVRDKQERIHLVLGDCTHSPGSLQISLLDGLGPLPIQGLLDSLTGILNKVLPELVQGNVCPLVNEVLRGLDITLVHDIVNMLIHGLQFVIKV
B1 was tested, and the “cytosolic Orai1 / Orai1 internalization” value (Orai1 [1]) was “increased; also recorded: Orai1 is internalized”, the MLC phosphorylation [2] was “decreased both basal and induced MLC phosphorylation; also recorded: suppressing myosin light chain (MLC) phosphorylation; also recorded: decreases MLC phosphorylation in dose dependent-manners” and the “decrease of plasma membrane Orai1 levels” value (Orai1 [3]) was about 50%. The “ASMC contraction in collagen matrix (decrease in gel surface area)” value (Human ASMCs) was “significantly reduced; also recorded: decreases airway smooth muscle (ASM) contractility”, the “ability of SPLUNC1 to inhibit Ca2+ signaling” value (hASMCs; ASMC with Orai1 knocked down by shRNA, TG) was “lost” and the “ability to suppress Ca2+ signaling, SPLUNC1 mutants/peptides” value (hASMCs; ASMCs pre-incubated with truncated SPLUNC1 peptides (FIG. 4H)) was “Inhibition was not different”. For the same molecule, the “SR Ca2+ release” value (hASMCs; TG without extracellular Ca2+ (EGTA), pre-treatment with SPLUNC1) was “no effect”, the “thapsigargin (TG)-induced Ca2+ flux (peak fura-2 ratio change)” value (hASMCs; human ASMCs, co-incubated 1 h) was “significantly reduced; also recorded: inhibits TG induced cytosolic Ca^2+ increases in a dose-dependent manner; also recorded: suppresses cytosolic Ca^2+ elevation in the presence of TG” and the “SOCE (store operated Ca2+ influx)” value (hASMCs; reintroduction of extracellular Ca2+ after TG, pre-treatment with SPLUNC1) was “significantly suppressed; also recorded: blocks store operated Ca^2+ influx in ASMCs”. For the same molecule, the “SPLUNC1 binding to ASMC plasma membranes” value (ASMC plasma membranes) was “decreased; also recorded: decreases SPLUNC1 binding to the ASMC membrane; also recorded: decreases fluorescent SPLUNC1 binding to ASMCs”.
